In patent US20190169286A1 (Chugai, published 2019):

How the values were obtained:
[1] = target: T1, soluble human FcγRIa (His-tagged) (human, UniProt P12314 16-292, limits assumed); assay: SPR (Biacore T200), antibody captured on rProtein L on a CM4 chip, soluble His-tagged FcγR injected, HBS-EP+, 20 °C
T1 construct: also called hFcγRIa; not shown: His tag
Description: (§1) Soluble FcγRIa and FcγRIIIa in both human and cynomolgus monkey were produced in the form of His-tagged molecules by methods known to those of ordinary skill in the art. […] Next, soluble FcγRIa or FcγRIIIa was injected with a running buffer (used as a reference solution), and was made to interact with the antibodies captured onto the sensor chip. HBS-EP+(GE Healthcare) was used as the running buffer, and HBS-EP+ was also used to dilute the soluble FcγRIa or FcγRIIIa. […] All measurements were carried out at 20° C.

[2] = target: T2, soluble human FcγRIIIa (His-tagged) (human, UniProt P08637 17-208); assay: as above
T2 construct: also called hFcγRIIIa; not shown: His tag
Description: as §1

[3] = target: T3, soluble cynomolgus monkey FcγRIIIa (His-tagged) (cynomolgus monkey, UniProt Q8SPW2 17-208); assay: as above
T3 construct: also called cynoFcγRIIIa; not shown: His tag
Description: as §1

[4] = target: T4, human IL-8 (human, UniProt P10145 23-99, limits assumed); assay: SPR Biacore T200, 37C; ratio between pH 7.4 and pH 5.8
T4 construct: also called hIL-8; hIL8
Description: (§2) An appropriate amount of Protein A/G (PIERCE) was immobilized onto Sensor chip CM4 (GE Healthcare) by the amine coupling method and the antibodies of interest was captured. […] To regenerate the sensor chip, 10 mM glycine-HCl at pH 1.5 was used. All measurements were carried out at 37° C. […] The BIACORE T200 Evaluation Software (GE Healthcare) was used to calculate each parameter.

[5] = target: T4, human IL-8; assay: SPR Biacore T200, Protein A/G capture, IL-8 analyte, pH 5.8, 37C
Description: as §2

[6] = target: T4, human IL-8; assay: SPR Biacore T200, Protein A/G capture, IL-8 analyte, pH 7.4, 37C
Description: as §2

[7] = target: T5, human FcRn (human, UniProt P55899 24-290; P61769 21-119, limits assumed); assay: SPR Biacore T100, Ab captured on Protein L, FcRn analyte, pH 6.0, 25C
T5 construct: also called hFcRn
Description: Antibodies containing VH3-IgG1m or an above-mentioned variant as the heavy chain and L(WT) (SEQ ID NO:1) as the light chain were produced by the method of Reference Example 2, and the binding activity toward human FcRn was evaluated as follows.
Kinetic analyses of human FcRn and each of the antibodies were carried out using BIACORE T100 (GE Healthcare). […] For the running buffer, 50 mM sodium phosphate, 150 mM NaCl, and 0.05% (w/v) Tween 20 at pH 6.0 was used, and the respective buffer was also used to dilute FcRn. […] All measurements were carried out at 25° C.

T5 sequence (P55899 24-290 limits assumed, chain 1 of 2): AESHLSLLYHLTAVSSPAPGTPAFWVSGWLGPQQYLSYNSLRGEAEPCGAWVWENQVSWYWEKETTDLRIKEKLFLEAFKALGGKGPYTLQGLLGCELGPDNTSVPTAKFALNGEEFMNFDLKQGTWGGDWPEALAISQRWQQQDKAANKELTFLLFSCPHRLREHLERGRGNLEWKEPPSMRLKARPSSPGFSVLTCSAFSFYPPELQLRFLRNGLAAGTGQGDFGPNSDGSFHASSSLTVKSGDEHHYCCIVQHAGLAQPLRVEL
T5 sequence (P61769 21-119 limits assumed, chain 2 of 2): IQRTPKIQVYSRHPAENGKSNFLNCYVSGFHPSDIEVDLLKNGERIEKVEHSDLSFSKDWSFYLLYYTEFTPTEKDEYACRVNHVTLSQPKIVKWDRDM
T4 sequence (P10145 23-99 limits assumed): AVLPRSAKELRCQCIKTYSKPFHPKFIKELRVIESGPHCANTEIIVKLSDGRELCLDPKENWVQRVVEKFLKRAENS
T1 sequence (P12314 16-292 limits assumed): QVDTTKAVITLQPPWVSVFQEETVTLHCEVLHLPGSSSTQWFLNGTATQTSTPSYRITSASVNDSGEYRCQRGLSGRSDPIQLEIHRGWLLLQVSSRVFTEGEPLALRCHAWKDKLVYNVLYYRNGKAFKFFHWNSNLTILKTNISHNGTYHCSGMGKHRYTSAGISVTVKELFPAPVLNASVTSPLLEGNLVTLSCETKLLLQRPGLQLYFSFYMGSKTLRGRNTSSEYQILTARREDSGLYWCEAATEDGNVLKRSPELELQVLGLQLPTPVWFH
T3 sequence (Q8SPW2 17-208 limits assumed): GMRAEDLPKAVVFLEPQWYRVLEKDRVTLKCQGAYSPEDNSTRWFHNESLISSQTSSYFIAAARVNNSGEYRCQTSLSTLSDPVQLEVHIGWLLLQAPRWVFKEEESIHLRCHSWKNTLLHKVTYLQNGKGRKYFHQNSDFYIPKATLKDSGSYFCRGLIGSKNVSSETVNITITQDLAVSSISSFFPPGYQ
T2 sequence (P08637 17-208 limits assumed): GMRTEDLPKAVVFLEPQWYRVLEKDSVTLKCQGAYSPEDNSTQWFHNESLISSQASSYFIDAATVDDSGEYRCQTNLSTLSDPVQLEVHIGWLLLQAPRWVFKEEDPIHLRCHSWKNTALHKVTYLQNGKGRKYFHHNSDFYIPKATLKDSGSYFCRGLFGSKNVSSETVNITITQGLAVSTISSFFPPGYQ

B1: H1009/L395-F1886s (H1009-F1886s / L395-k0MT) (antibody)
heavy: QVQLVESGGGLVQPGGSLRLSCAASGFTFSDYYLSWVRQAPGKGLEWVGLIRNKDNYHTPEYSASVKGRFTISRDDSKNSLYLTMSDLKTEDTAVYYCARENHRYDVELAYWGQGTLVTVSSASTKGPSVFPLAPSSKSTSGGTAALGCLVKDYFPEPVTVSWNSGALTSGVHTFPAVLQSSGLYSLSSVVTVPSSSLGTQTYICNVNHKPSNTKVDKKVEPKSCDKTHTCPPCPAPELRRGPKVFLFPPKPKDTLMISRTPEVTCVVVDVSHEDPEVKFNWYVDGVEVHNAKTKPREEQYNSTYRVVSVLTVLHQDWLNGKEYKCKVSNKALPAPIEKTISKAKGQPREPQVYTLPPSREEMTKNQVSLTCLVKGFYPSDIAVEWESNGQPENNYKTTPPVLDSDGSFFLYSKLTVDKSRWQQGNVFSCSVLHEALHAHTTRKELSLSP
light: DIQMTQSPSSLSASVGDRVTITCRASEIIYSYLAWYQQKPGKAPKLLIYKAKTHADGVPSRFSGSGSGTDFTFTISSLQPEDIATYYCKHHFGFPRTFGQGTKVEIKRTVAAPSVFIFPPSDEQLKSGTASVVCLLNNFYPREAKVQWKVDNALQSGNSQESVTEQDSKDSTYSLSSTLTLSKADYEKHKVYACEVTHQGLSSPVTKSFNRGEC
B1: no binding (tested: not given) [1]; no binding (tested: not given) [2]; no binding (tested: not given) [3].

B2: H1009/L395-F1886m (antibody)
heavy: QVQLVESGGGLVQPGGSLRLSCAASGFTFSDYYLSWVRQAPGKGLEWVGLIRNKDNYHTPEYSASVKGRFTISRDDSKNSLYLTMSDLKTEDTAVYYCARENHRYDVELAYWGQGTLVTVSSASTKGPSVFPLAPSSKSTSGGTAALGCLVKDYFPEPVTVSWNSGALTSGVHTFPAVLQSSGLYSLSSVVTVPSSSLGTQTYICNVNHKPSNTKVDKKVEPKSCDKTHTCPPCPAPELLGGPSVFLFPPKPKDTLMISRTPEVTCVVVDVSHEDPEVKFNWYVDGVEVHNAKTKPREEQYNSTYRVVSVLTVLHQDWLNGKEYKCKVSNKALPAPIEKTISKAKGQPREPQVYTLPPSREEMTKNQVSLTCLVKGFYPSDIAVEWESNGQPENNYKTTPPVLDSDGSFFLYSKLTVDKSRWQQGNVFSCSVLHEALHAHTTRKELSLSP
light: DIQMTQSPSSLSASVGDRVTITCRASEIIYSYLAWYQQKPGKAPKLLIYKAKTHADGVPSRFSGSGSGTDFTFTISSLQPEDIATYYCKHHFGFPRTFGQGTKVEIKRTVAAPSVFIFPPSDEQLKSGTASVVCLLNNFYPREAKVQWKVDNALQSGNSQESVTEQDSKDSTYSLSSTLTLSKADYEKHKVYACEVTHQGLSSPVTKSFNRGEC
B2: binds [1]; binds [3].

B3: Hr9/L16 (antibody, human IgG1, kappa, name in Kabat numbering, V domains shown)
VH: QVQLVESGGGLVQPGGSLRLSCAASGFTFSDYYLSWVRQAPGKGLEWVGLIRNKANGYTREYSASVKGRFTISRDDSKNSLYLQMSSLKTEDTAVYYCARENYRYDVELAYWGQGTLVTVSS
VL: DIQMTQSPSSLSASVGDRVTITCRASEIIYSYLAWYQQKPGKAPKLLIYNAKTHADGVPSRFSGSGSGTDFTFTISSLQPEDIATYYCQHHFGFPRTFGQGTKVEIKR
notes: WS4L-k0MT with L54H
With B3 the “KD Ratio (pH 5.8/pH 7.4)” value [4] was 46.8, the “Koff Ratio (pH 5.8/pH 7.4)” value [4] was 2.1 and the “kon Ratio (pH 7.4/pH 5.8)” value [4] was 22.8. For the same binder, the koff [5] was 0.000197 s⁻¹, the kon [5] was 39100 M⁻¹ s⁻¹ and the koff [6] was 9.57e-05 s⁻¹. For the same binder, the kon [6] was 890000 M⁻¹ s⁻¹.

B4: VH3-F1848m / L(WT) (antibody)
heavy: QVQLQESGPGLVKPSETLSLTCAVSGHSISHDHAWSWVRQPPGEGLEWIGFISYSGITNYNPSLQGRVTISRDNSKNTLYLQMNSLRAEDTAVYYCARSLARTTAMDYWGEGTLVTVSSASTKGPSVFPLAPSSKSTSGGTAALGCLVKDYFPEPVTVSWNSGALTSGVHTFPAVLQSSGLYSLSSVVTVPSSSLGTQTYICNVNHKPSNTKVDKKVEPKSCDKTHTCPPCPAPELLGGPSVFLFPPKPKDTLMISRTPEVTCVVVDVSHEDPEVKFNWYVDGVEVHNAKTKPREEQYNSTYRVVSVLTVLHQDWLNGKEYKCKVSNKALPAPIEKTISKAKGQPREPQVYTLPPSREEMTKNQVSLTCLVKGFYPSDIAVEWESNGQPENNYKTTPPVLDSDGSFFLYSKLTVDKSRWQQGNVFSCSVMHEALHAHVTRKELSLSP
light: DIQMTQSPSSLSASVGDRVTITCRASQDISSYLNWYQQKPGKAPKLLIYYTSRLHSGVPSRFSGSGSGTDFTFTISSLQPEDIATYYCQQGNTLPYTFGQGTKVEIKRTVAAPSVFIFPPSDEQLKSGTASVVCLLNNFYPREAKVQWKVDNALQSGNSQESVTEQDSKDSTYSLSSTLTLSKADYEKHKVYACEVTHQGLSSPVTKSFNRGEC
notes: Fc: N434A/Y436V/Q438R/S440E
With B4 the Kd [7] was 295 nM.

B5: VH3-F1886m / L(WT) (antibody)
heavy: QVQLQESGPGLVKPSETLSLTCAVSGHSISHDHAWSWVRQPPGEGLEWIGFISYSGITNYNPSLQGRVTISRDNSKNTLYLQMNSLRAEDTAVYYCARSLARTTAMDYWGEGTLVTVSSASTKGPSVFPLAPSSKSTSGGTAALGCLVKDYFPEPVTVSWNSGALTSGVHTFPAVLQSSGLYSLSSVVTVPSSSLGTQTYICNVNHKPSNTKVDKKVEPKSCDKTHTCPPCPAPELLGGPSVFLFPPKPKDTLMISRTPEVTCVVVDVSHEDPEVKFNWYVDGVEVHNAKTKPREEQYNSTYRVVSVLTVLHQDWLNGKEYKCKVSNKALPAPIEKTISKAKGQPREPQVYTLPPSREEMTKNQVSLTCLVKGFYPSDIAVEWESNGQPENNYKTTPPVLDSDGSFFLYSKLTVDKSRWQQGNVFSCSVLHEALHAHTTRKELSLSP
light: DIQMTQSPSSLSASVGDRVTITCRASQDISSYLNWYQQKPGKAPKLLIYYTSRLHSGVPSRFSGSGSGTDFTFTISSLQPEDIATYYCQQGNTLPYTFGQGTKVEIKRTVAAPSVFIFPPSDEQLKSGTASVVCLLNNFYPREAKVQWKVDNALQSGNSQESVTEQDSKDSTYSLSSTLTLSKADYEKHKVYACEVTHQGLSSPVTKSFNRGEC
notes: Fc: M428L/N434A/Y436T/Q438R/S440E
For B5, the Kd [7] was 108 nM.

B6: VH3-F1889m / L(WT) (antibody)
heavy: QVQLQESGPGLVKPSETLSLTCAVSGHSISHDHAWSWVRQPPGEGLEWIGFISYSGITNYNPSLQGRVTISRDNSKNTLYLQMNSLRAEDTAVYYCARSLARTTAMDYWGEGTLVTVSSASTKGPSVFPLAPSSKSTSGGTAALGCLVKDYFPEPVTVSWNSGALTSGVHTFPAVLQSSGLYSLSSVVTVPSSSLGTQTYICNVNHKPSNTKVDKKVEPKSCDKTHTCPPCPAPELLGGPSVFLFPPKPKDTLMISRTPEVTCVVVDVSHEDPEVKFNWYVDGVEVHNAKTKPREEQYNSTYRVVSVLTVLHQDWLNGKEYKCKVSNKALPAPIEKTISKAKGQPREPQVYTLPPSREEMTKNQVSLTCLVKGFYPSDIAVEWESNGQPENNYKTTPPVLDSDGSFFLYSKLTVDKSRWQQGNVFSCSVLHEALHAHVTRKELSLSP
light: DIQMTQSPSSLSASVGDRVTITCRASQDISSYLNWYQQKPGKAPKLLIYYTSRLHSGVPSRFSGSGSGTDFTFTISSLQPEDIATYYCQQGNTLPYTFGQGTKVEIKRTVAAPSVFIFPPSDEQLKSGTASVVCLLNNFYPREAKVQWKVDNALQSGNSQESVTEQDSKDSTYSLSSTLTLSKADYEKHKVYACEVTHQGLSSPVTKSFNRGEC
notes: Fc: M428L/N434A/Y436V/Q438R/S440E
Work on B6 yielded a Kd [7] of 103 nM.

B7: VH3-F1927m / L(WT) (antibody)
heavy: QVQLQESGPGLVKPSETLSLTCAVSGHSISHDHAWSWVRQPPGEGLEWIGFISYSGITNYNPSLQGRVTISRDNSKNTLYLQMNSLRAEDTAVYYCARSLARTTAMDYWGEGTLVTVSSASTKGPSVFPLAPSSKSTSGGTAALGCLVKDYFPEPVTVSWNSGALTSGVHTFPAVLQSSGLYSLSSVVTVPSSSLGTQTYICNVNHKPSNTKVDKKVEPKSCDKTHTCPPCPAPELLGGPSVFLFPPKPKDTLMISRTPEVTCVVVDVSHEDPEVKFNWYVDGVEVHNAKTKPREEQYNSTYRVVSVLTVLHQDWLNGKEYKCKVSNKALPAPIEKTISKAKGQPREPQVYTLPPSREEMTKNQVSLTCLVKGFYPSDIAVEWESNGQPENNYKTTPPVLDSDGSFFLYSKLTVDKSRWQQGNVFSCSVLHEALHAHYTRKELSLSP
light: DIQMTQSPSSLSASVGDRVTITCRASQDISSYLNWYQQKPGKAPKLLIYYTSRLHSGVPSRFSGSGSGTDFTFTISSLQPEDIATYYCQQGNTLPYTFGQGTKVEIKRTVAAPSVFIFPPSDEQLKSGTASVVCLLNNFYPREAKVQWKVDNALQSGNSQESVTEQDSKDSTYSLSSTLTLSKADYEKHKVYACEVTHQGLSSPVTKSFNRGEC
notes: Fc: M428L/N434A/Q438R/S440E
B7 was tested, and the Kd [7] was 125 nM.

B8: VH3-YTE / L(WT) (antibody, human IgG1, kappa)
heavy: QVQLQESGPGLVKPSETLSLTCAVSGHSISHDHAWSWVRQPPGEGLEWIGFISYSGITNYNPSLQGRVTISRDNSKNTLYLQMNSLRAEDTAVYYCARSLARTTAMDYWGEGTLVTVSSASTKGPSVFPLAPSSKSTSGGTAALGCLVKDYFPEPVTVSWNSGALTSGVHTFPAVLQSSGLYSLSSVVTVPSSSLGTQTYICNVNHKPSNTKVDKKVEPKSCDKTHTCPPCPAPELLGGPSVFLFPPKPKDTLYITREPEVTCVVVDVSHEDPEVKFNWYVDGVEVHNAKTKPREEQYNSTYRVVSVLTVLHQDWLNGKEYKCKVSNKALPAPIEKTISKAKGQPREPQVYTLPPSREEMTKNQVSLTCLVKGFYPSDIAVEWESNGQPENNYKTTPPVLDSDGSFFLYSKLTVDKSRWQQGNVFSCSVMHEALHNHYTQKSLSLSP
light: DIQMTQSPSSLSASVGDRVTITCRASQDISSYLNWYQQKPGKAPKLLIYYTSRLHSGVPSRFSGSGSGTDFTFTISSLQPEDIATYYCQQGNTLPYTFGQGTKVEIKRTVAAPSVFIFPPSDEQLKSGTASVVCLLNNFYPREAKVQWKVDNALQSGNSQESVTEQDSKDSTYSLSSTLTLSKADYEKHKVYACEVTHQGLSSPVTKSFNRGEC
notes: Fc: M252Y/S254T/T256E
In the case of B8, the Kd [7] is reported as 148 nM.
